Source: doi:10.1101/2024.12.19.629503

Molecular target: di-nucleosome of X. laevis histone octamers on two Widom 601 sequences (unmodified) (X. laevis)
Experiment: cryo-EM structure

stoichiometry N (hetero-tetramers per di-nucleosome): 2
Substance: DNMT3A2/3B3 hetero-tetramer (from UniProt Q9UBC3-3 1-770) (complex)
